Results as given in patent US20140178332A1 (published 2014).
Numbering of substitutions follows the chain as printed.

T1: recombinant purified cyno IL-12 p70 (cynomolgus monkey)
T1 chain 1: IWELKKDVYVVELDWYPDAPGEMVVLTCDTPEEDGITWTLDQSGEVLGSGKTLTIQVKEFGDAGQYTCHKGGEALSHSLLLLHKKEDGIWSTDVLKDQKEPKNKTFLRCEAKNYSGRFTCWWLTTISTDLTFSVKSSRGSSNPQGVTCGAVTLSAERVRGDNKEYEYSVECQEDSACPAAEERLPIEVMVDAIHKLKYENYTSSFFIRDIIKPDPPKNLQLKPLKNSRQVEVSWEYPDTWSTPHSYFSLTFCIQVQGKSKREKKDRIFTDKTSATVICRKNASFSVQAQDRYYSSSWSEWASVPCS
T1 chain 2: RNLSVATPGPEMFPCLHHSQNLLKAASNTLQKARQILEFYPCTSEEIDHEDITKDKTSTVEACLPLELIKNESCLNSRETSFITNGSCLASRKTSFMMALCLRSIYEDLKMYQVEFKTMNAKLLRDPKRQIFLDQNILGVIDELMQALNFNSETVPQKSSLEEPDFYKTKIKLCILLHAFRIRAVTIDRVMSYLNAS

T2: recombinant purified human IL-12 p70 (human, UniProt P29459 23-219)
T2 sequence 1: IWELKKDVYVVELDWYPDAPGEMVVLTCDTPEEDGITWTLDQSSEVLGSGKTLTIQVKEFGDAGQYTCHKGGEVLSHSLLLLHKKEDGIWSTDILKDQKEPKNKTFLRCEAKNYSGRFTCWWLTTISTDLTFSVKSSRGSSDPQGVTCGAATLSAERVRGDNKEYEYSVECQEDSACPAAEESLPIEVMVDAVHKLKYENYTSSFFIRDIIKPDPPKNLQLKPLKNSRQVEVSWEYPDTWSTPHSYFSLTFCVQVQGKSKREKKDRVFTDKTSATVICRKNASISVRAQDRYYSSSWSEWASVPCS
T2 sequence 2: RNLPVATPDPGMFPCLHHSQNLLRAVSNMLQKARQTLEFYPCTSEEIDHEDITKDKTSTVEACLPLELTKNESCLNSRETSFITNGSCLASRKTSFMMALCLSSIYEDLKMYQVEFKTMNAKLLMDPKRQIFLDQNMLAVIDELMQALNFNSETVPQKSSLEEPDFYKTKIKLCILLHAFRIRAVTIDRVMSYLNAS

T3: recombinant purified mouse IL-12 (Peprotech) (mouse, UniProt P43432 23-335; P43431 23-215)
T3 construct: Bought reagent; also called mu IL-12; murine IL-12
T3 sequence (looked up) 1: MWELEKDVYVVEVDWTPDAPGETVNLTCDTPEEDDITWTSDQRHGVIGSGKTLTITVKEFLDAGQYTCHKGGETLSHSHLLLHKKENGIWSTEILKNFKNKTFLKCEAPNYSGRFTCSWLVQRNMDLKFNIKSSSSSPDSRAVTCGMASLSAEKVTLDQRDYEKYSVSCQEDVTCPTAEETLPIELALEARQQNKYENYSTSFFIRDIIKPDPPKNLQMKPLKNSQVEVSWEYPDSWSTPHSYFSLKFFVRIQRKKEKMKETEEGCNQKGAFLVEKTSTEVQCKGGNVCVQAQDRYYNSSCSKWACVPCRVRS
T3 sequence (looked up) 2: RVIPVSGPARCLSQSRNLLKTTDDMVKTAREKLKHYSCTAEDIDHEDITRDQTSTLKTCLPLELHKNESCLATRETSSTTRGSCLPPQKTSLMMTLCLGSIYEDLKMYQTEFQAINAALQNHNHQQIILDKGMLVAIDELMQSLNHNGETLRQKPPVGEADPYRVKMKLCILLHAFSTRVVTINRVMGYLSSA

B1: murine anti-human IL-12p40 monoclonal antibody 7G3 (antibody, V domains shown)
VH: EVQLQQSGAEFVRSGASVKLSCTASGLNIKDYYIHWVKQRPEQVLDWIGWIDPENGYSEYAPRFQDKATMTADTSSNTAYLHLSSLTSEDTAVYYCNPGELARYFDYWGQGTTLTVSS
VL: DIVLSQSPATLSVTPGDSVSLSCRASQSISKNLHWYQQKSHESPRLLIKYTSQSISGIPSRFSGSGSGTDFTLSINSVETEDFGMYFCQQSISWPLTFGAGTKLELKR
notes: Murine mAb
B2: murine anti-human IL-12p40 monoclonal antibody 1D4 (antibody, V domains shown)
VH: QVTLKESGPGILQPSQTLSLTCSFSGFSLRKSVMGVSWIRQPSGKGLEWLAHIYWDDDKYYNPSLKSRLTISKDPSRNQVFLKITSVDTADAATYYCTRRGIRSAMDYWGQGTSVTVSS
VL: SVVMTQTPKFLLVSAGDRVTITCKASQSVSNDVAWYQQKPGQSPKLLIYYASNRYTGVPDRFTGSGYGTDFTFIISTVRAEDLAVYFCQQDYNSPWTFGGGTKLEIKR
notes: Murine mAb purified from hybridoma supernatant
B3: murine anti-human IL-12p40 monoclonal antibody 3G7 (antibody, V domains shown)
VH: QVQLQQSGAELMKPGASVKISCKATGYTFNDYWIEWVKQRPGHGLEWIGGFSHGSGSTNYNEKFKGKATFTADSSSNTAYMQLSSLTSEDSAVYYCARRRFRGMDYWGQGTSVTVSS
VL: B2 VL with V2I, I74T, S76T, R79Q, N93S, T97S
notes: Murine mAb
B4: murine anti-human IL-12p40 monoclonal antibody 1D8 (antibody, V domains shown)
VH: QVQLQQSGAELMKPGASVKISCKATGYTFSSYWIEWVKQRPGHGLEWIGDILPGSGSTNYNEKFKDKATFTADTSFNTAYMQLSSLTSEDSAVYYCATRRFRGLDYWGQGTTLTVSS
VL: B2 VL with V2I, P40S, I74T, R79Q, A80P, N93T, W96F, G100S
notes: Murine mAb
B5: murine anti-human IL-12p40 monoclonal antibody 1A6 (antibody, V domains shown)
VH: QVTLKESGPGILKPSQTLSLTCSFSGFSLSTSGMGVSWIRQPSGKGLEWLAHIWWDGDNYYNPSLKSQLTISKDTSRNQVFLRIATVDTADTATYYCARRTRVNYAMDYWGQGTSVTVSS
VL: B2 VL with Y36F, I74T, R79Q
notes: Murine mAb
B6: murine anti-human IL-12p40 monoclonal antibody 5E8 (antibody, V domains shown)
VH: QIQLVQSGPELKKPGETVKISCKASGYSFTDYSMHWVKQAPGKGLKWMDWINTETGEPTYADDFKGRFAFSLETSASTAYLQINNLKNEDTATYFCSRRRYRAFDYWGQGTTLTVSS
VL: B2 VL with V2I, T7S, P40L, I74T, S76N, R79Q, N93T, W96Y, K107Q
notes: Murine mAb
B7: murine anti-human IL-12p40 monoclonal antibody 1H6 (antibody, V domains shown)
VH: EVKLVESGGGLVQPGGSRKLSCAASGFTFSDYGMVWVRQAPGKGLEWVAYISSGSSTIHYADTMKGRFTISRDNPKNTLFLQMSSLRSEDTAMYYCARRHYYAMDYWGQGTSVTVSS
VL: B2 VL with V2F, S65T, I74T, R79Q, N93T, W96F, G100S
notes: Murine mAb
B8: murine anti-human IL-12p40 monoclonal antibody 4B4 (antibody, V domains shown)
VH: B5 VH with F24L, N59S, Y61S, K66R, Q68R, K73R
VL: B2 VL with I21M, Y36F, I74T, R79Q
notes: Murine mAb
B9: murine anti-human IL-12p40 monoclonal antibody 3A11 (antibody, V domains shown)
VH: EVQLQQSGADLEKPGASVKLSCTASGFNIKDTFMHWVKQRPEQGLEWIGRIDPANGHTKYDPKFQGKATITADTSSNTAYLQLSSLTSEDTAVYYCARWGQFGLLWNAMDYWGQGTSVTVSS
VL: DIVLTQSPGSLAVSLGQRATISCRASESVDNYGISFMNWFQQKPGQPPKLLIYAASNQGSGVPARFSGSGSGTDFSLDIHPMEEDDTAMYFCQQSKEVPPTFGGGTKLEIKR
notes: Murine mAb

Legend:
[1] = biological target: T1, recombinant purified cyno IL-12 p70; test: cell-based or functional assay
[2] = biological target: T2, recombinant purified human IL-12 p70; test: cell-based or functional assay
[3] = biological target: T3, recombinant purified mouse IL-12 …; test: direct ELISA, plate coated with 5 ug/ml recombinant mouse IL-12
Protocol: To determine whether the ten monoclonal antibodies described above recognize murine IL-12, two ELISAs were set up. First, a direct ELISA was set up by directly coating ELISA plates with 5 ug/ml of recombinant purified mouse IL-12 (Peprotech). Murine-anti-human IL-12 p40 mAbs were prepared at various concentrations ranging from 3 to 200 ng/ml in PBS containing 0.1% BSA (Sigma, St. Louis, Mo.). 50 μl of each antibody dilution was added to the coated ELISA plate and incubated for 1 hour at room temperature. Wells were washed 3 times with PBS containing 0.05% Tween-20. Anti-mouse IgG-HRP antibody (R&D #HAF007, Minneapolis, Minn.) was diluted 1:2000 in PBS containing 0.1% BSA; 50 ul/well was added and the plates incubated for 1 hour at room temperature. Fifty microliters of TMB solution (Sigma # T0440, St. Louis, Mo.) was added to each well and incubated for 10 minutes at room temperature. The reaction was stopped by addition of 2N sulphuric acid. Plates were read spectrophotmetrically at a wavelength of 450 nm.

[4] = biological target: T2, recombinant purified human IL-12 p70; test: SPR (Biacore), mAb captured on anti-mouse IgG Fc, IL-12 p70 as analyte
Protocol: The BIACORE assay (Biacore, Inc, Piscataway, N.J.) determines the affinity of antibodies with kinetic measurements of on-, off-rate constants. Binding of antibodies to recombinant purified human IL-12 p70 or recombinant purified human IL-12 p40 were determined by surface plasmon resonance-based measurements with a Biacore® 3000 instrument (Biacore® AB, Uppsala, Sweden) using running HBS-EP (10 mM HEPES [pH 7.4], 150 mM NaCl, 3 mM EDTA, and 0.005% surfactant P20) at 25° C. All chemicals were obtained from Biacore® AB (Uppsala, Sweden) or otherwise from a different source as described in the text. Approximately 5000 RU of goat anti-mouse IgG, (Fcγ), fragment specific polyclonal antibody (Pierce Biotechnology Inc, Rockford, Ill.) diluted in 10 mM sodium acetate (pH 4.5) was directly immobilized across a CM5 research grade biosensor chip using a standard amine coupling kit according to manufacturer's instructions and procedures at 25 μg/ml. Unreacted moieties on the biosensor surface were blocked with ethanolamine. Modified carboxymethyl dextran surface in flowcell 2 and 4 was used as a reaction surface. Unmodified carboxymethyl dextran without goat anti-mouse IgG in flow cell 1 and 3 was used as the reference surface. For kinetic analysis, rate equations derived from the 1:1 Langmuir binding model were fitted simultaneously to association and dissociation phases of all eight injections (using global fit analysis) with the use of Biaevaluation 4.0.1 software. Purified antibodies were diluted in HEPES-buffered saline for capture across goat anti-mouse IgG specific reaction surfaces. Mouse antibodies to be captured as a ligand (25 μg/ml) were injected over reaction matrices at a flow rate of 5 μl/min. The association and dissociation rate constants, kₒₙ (unit M⁻¹ s⁻¹) and koff (unit s⁻¹) were determined under a continuous flow rate of 25 μl/min. Rate constants were derived by making kinetic binding measurements at ten different antigen concentrations ranging from 10-200 nM. The equilibrium dissociation constant (unit M) of the reaction between mouse antibodies and recombinant purified human IL-12 p70 or recombinant purified human IL-12 p40 was then calculated from the kinetic rate constants by the following formula: KD=koff/kₒₙ. Binding is recorded as a function of time and kinetic rate constants are calculated.

Binder | Average IC50 (nM) Cyno IL-12, PHA blast IFN-γ assay [1] [nM] | Average IC50 (nM) Human IL-12, PHA blast IFN-γ assay [2] [nM] | binding result [3] | Kd [4] [nM] | koff [4] [s⁻¹] | kon [4] [M⁻¹ s⁻¹]
B1 | > 20 | 0.047 | no binding (tested: 3 to 200 ng/ml mAb) | 0.27 | 0.00028 | 1.1e+06
B2 | 0.078 | 0.031 | no binding (tested: 3 to 200 ng/ml mAb) | 0.12 | 2.9e-05 | 250000
B3 | 0.35 | 0.15 | no binding (tested: 3 to 200 ng/ml mAb) | 0.047 | 3.8e-05 | 820000
B4 | 1.4 | 0.31 | no binding (tested: 3 to 200 ng/ml mAb) | 0.044 | 2.3e-05 | 510000
B5 | 0.044 | 0.052 | no binding (tested: 3 to 200 ng/ml mAb) | 0.23 | 3.5e-05 | 150000
B6 |  | 12 | no binding (tested: 3 to 200 ng/ml mAb) | 4 | 0.0023 | 570000
B7 | 1.6 | 0.69 | no binding (tested: 3 to 200 ng/ml mAb) | 0.25 | 9.9e-05 | 430000
B8 | 0.028 | 0.039 | no binding (tested: 3 to 200 ng/ml mAb) | 0.1 | 1.4e-05 | 130000
B9 |  | 3.4 | no binding (tested: 3 to 200 ng/ml mAb) | 1.2 | 0.00019 | 150000
